± gives the uncertainty stated by the source.

Consider 167 variants from the Human Domainome abundance scans (Beltran et al. 2025).

First the molecules themselves.
B1: Homeobox protein cut-like 2, residues 895 to 963; numbered along this chain, O14529 (parent)
chain: EVDTLELTRQVKEKLAKNGICQRIFGEKVLGLSQGSVSDMLSRPKPWSKLTQKGREPFIRMQLWLSDQL

In this series the parent is B1. The experiment in a line: abundance fitness (aPCA) (normalised: wild type 0, dead -1); higher = more abundant; growth selection in yeast, the domain comes from the species named. Particulars: Homo sapiens.
Turning to L7A, the abundance fitness was -0.125 ± 0.04.

Regarding V11F, the abundance fitness was -0.239 ± 0.062.

For V11H, the abundance fitness was -0.23 ± 0.07.

V11S: the abundance fitness was -0.166 ± 0.037.

As to V2H, the abundance fitness was -0.201 ± 0.068.

For the variant V2D, the abundance fitness is -0.301 ± 0.072.

Regarding V2E, the abundance fitness is -0.019 ± 0.047.

On to L63E, for which the abundance fitness was 0.037 ± 0.11.

As to L63A, the abundance fitness is 0.058 ± 0.055.

With L63S, the abundance fitness stood at 0.069 ± 0.032.

As to L63I, the abundance fitness was -0.213 ± 0.059.

In the case of L63Q, the abundance fitness stood at 0.078 ± 0.038.

Consider N18H, for which the abundance fitness amounted to 0.001 ± 0.049.

As to N18Q, the abundance fitness is -0.016 ± 0.034.

In the case of N18R, the abundance fitness came out at 0.013 ± 0.035.

Consider N18T, for which the abundance fitness is 0.022 ± 0.035.

As for N18V, the abundance fitness was -0.075 ± 0.043.

Take N18D: the abundance fitness is -0.153 ± 0.081.

For G19N, the abundance fitness was -0.007 ± 0.076.

As to G19Y, the abundance fitness is -0.122 ± 0.057.

G19L: the abundance fitness was -0.31 ± 0.025.

Consider G19K, for which the abundance fitness was 0.009 ± 0.041.

For G19F, the abundance fitness was -0.226 ± 0.041.

Turning to G19S, the abundance fitness was -0.01 ± 0.062.

In the case of G19R, the abundance fitness came to 0.032 ± 0.065.

With G19T, the abundance fitness was -0.332 ± 0.097.

As to G19I, the abundance fitness was -0.434 ± 0.057.

Regarding K49P, the abundance fitness is -0.731 ± 0.033.

Regarding K49Q, the abundance fitness turned out to be 0.034 ± 0.034.

With K49F, the abundance fitness is -0.281 ± 0.044.

Turning to Q34G, the abundance fitness was found to be 0.434 ± 0.23.

On to Q34H, for which the abundance fitness is 0.027 ± 0.038.

On to Q34L, for which the abundance fitness is -0.003 ± 0.028.

With Q34K, the abundance fitness is 0.069 ± 0.045.

Take Q34D: the abundance fitness is -0.078 ± 0.14.

With Q34A, the abundance fitness was determined as 0.088 ± 0.081.

Regarding I59A, the abundance fitness was -0.079 ± 0.039.

For I59R, the abundance fitness turned out to be 0.113 ± 0.04.

Regarding I59P, the abundance fitness is -0.937 ± 0.043.

As to I59S, the abundance fitness is -0.118 ± 0.034.

Take S38H: the abundance fitness worked out at 0.005 ± 0.03.

Consider S38E, for which the abundance fitness was 0.106 ± 0.036.

For S38Q, the abundance fitness worked out at 0.03 ± 0.025.

Turning to S38G, the abundance fitness is -0.097 ± 0.033.

Regarding L30F, the abundance fitness was -0.186 ± 0.038.

L30W: the abundance fitness was -0.21 ± 0.033.

Turning to E1Q, the abundance fitness is -0.278 ± 0.12.

On to E1H, for which the abundance fitness is -0.149 ± 0.27.

In the case of E1M, the abundance fitness was determined as 0.034 ± 0.046.

For E1L, the abundance fitness was -0.3 ± 0.045.

In the case of R60H, the abundance fitness was -0.462 ± 0.064.

Turning to R60N, the abundance fitness was -0.413 ± 0.093.

Turning to R60V, the abundance fitness was -0.863 ± 0.091.

As for R60T, the abundance fitness is -0.209 ± 0.033.

On to I20R, for which the abundance fitness is -0.409 ± 0.051.

Regarding I20D, the abundance fitness is -0.415 ± 0.067.

As for G35Q, the abundance fitness is 0.088 ± 0.03.

For the variant G35P, the abundance fitness is -0.077 ± 0.04.

For the variant G35T, the abundance fitness turned out to be 0.039 ± 0.048.

As to G35W, the abundance fitness was -0.106 ± 0.031.

With G35S, the abundance fitness was found to be 0.027 ± 0.038.

As to G35M, the abundance fitness is -0.098 ± 0.036.

As for G35C, the abundance fitness was -0.211 ± 0.043.

Consider G35F, for which the abundance fitness is -0.079 ± 0.037.

On to K28N, for which the abundance fitness was -0.242 ± 0.049.

With K28T, the abundance fitness is -0.078 ± 0.033.

Consider K28W, for which the abundance fitness is -0.263 ± 0.037.

With K28S, the abundance fitness was -0.116 ± 0.028.

Take K28I: the abundance fitness was -0.502 ± 0.055.

Regarding K28A, the abundance fitness was -0.19 ± 0.04.

Consider K28M, for which the abundance fitness was -0.155 ± 0.032.

Take S66F: the abundance fitness was -0.2 ± 0.053.

On to S66K, for which the abundance fitness was 0.109 ± 0.041.

As to S66W, the abundance fitness is -0.08 ± 0.052.

As to S66V, the abundance fitness was -0.066 ± 0.037.

For S66A, the abundance fitness was -0.045 ± 0.069.

On to S66H, for which the abundance fitness came out at 0.005 ± 0.092.

As to S66P, the abundance fitness was -0.998 ± 0.046.

Consider R23E, for which the abundance fitness is 0.068 ± 0.047.

For the variant R23K, the abundance fitness came to 0.047 ± 0.049.

As for R23W, the abundance fitness was -0.154 ± 0.044.

With R23A, the abundance fitness is -0.106 ± 0.039.

In the case of R23N, the abundance fitness amounted to 0.038 ± 0.13.

On to R23T, for which the abundance fitness was -0.155 ± 0.044.

Take R23G: the abundance fitness is -0.103 ± 0.048.

On to Q22F, for which the abundance fitness was -0.182 ± 0.07.

As to Q22N, the abundance fitness was -0.461 ± 0.14.

For R9G, the abundance fitness is -0.129 ± 0.026.

Consider R9P, for which the abundance fitness was -0.137 ± 0.047.

With R9K, the abundance fitness was -0.086 ± 0.044.

Consider R9H, for which the abundance fitness is -0.358 ± 0.1.

R9D: the abundance fitness was -0.21 ± 0.059.

On to V37W, for which the abundance fitness is -0.061 ± 0.038.

Consider V37E, for which the abundance fitness was -0.436 ± 0.087.

With V37D, the abundance fitness was -0.397 ± 0.093.

With V37I, the abundance fitness is -0.156 ± 0.046.

As to V37P, the abundance fitness was -0.311 ± 0.028.

Regarding V37A, the abundance fitness was -0.139 ± 0.038.

V37T: the abundance fitness came out at 0 ± 0.043.

Take M61F: the abundance fitness is -0.157 ± 0.072.

For the variant M61D, the abundance fitness is -0.702 ± 0.3.

Consider M61Y, for which the abundance fitness was -1 ± 0.18.

Consider G54S, for which the abundance fitness is -0.092 ± 0.032.

G54A: the abundance fitness was 0.084 ± 0.046.

Take G54D: the abundance fitness came out at 0.201 ± 0.24.

On to G54I, for which the abundance fitness came out at 0.046 ± 0.049.

For G54L, the abundance fitness was -0.011 ± 0.029.

As to G54C, the abundance fitness is -0.007 ± 0.043.

Take G54Y: the abundance fitness was -0.165 ± 0.059.

Consider K17Q, for which the abundance fitness stood at 0 ± 0.051.

On to K17F, for which the abundance fitness is -0.267 ± 0.056.

For K17H, the abundance fitness is -0.382 ± 0.093.

For the variant K17A, the abundance fitness is -0.086 ± 0.046.

As to E56T, the abundance fitness is -0.22 ± 0.046.

Consider E56K, for which the abundance fitness is -0.156 ± 0.091.

On to E56V, for which the abundance fitness is -0.182 ± 0.049.

Consider E56A, for which the abundance fitness is -0.08 ± 0.041.

Consider E56N, for which the abundance fitness was -0.348 ± 0.14.

S33P: the abundance fitness worked out at 0.03 ± 0.032.

With S33V, the abundance fitness is -0.061 ± 0.034.

Regarding E27I, the abundance fitness is -0.128 ± 0.036.

With E27F, the abundance fitness was -0.173 ± 0.031.

Regarding L15K, the abundance fitness came out at 0.029 ± 0.038.

On to L15F, for which the abundance fitness is -0.157 ± 0.043.

Regarding L15R, the abundance fitness was -0.069 ± 0.045.

Consider L15S, for which the abundance fitness was -0.087 ± 0.053.

For L15I, the abundance fitness is -0.084 ± 0.047.

For the variant L15G, the abundance fitness was -0.113 ± 0.027.

As to M40D, the abundance fitness was -0.059 ± 0.13.

For the variant M40Q, the abundance fitness is -0.29 ± 0.063.

Turning to M40V, the abundance fitness is -0.046 ± 0.07.

Turning to M40W, the abundance fitness turned out to be 0.048 ± 0.046.

On to M40I, for which the abundance fitness was determined as 0.007 ± 0.08.

In the case of M40G, the abundance fitness is -0.298 ± 0.077.

As for M40T, the abundance fitness is -0.224 ± 0.049.

For the variant M40A, the abundance fitness was -0.169 ± 0.046.

As for D39N, the abundance fitness was -0.188 ± 0.15.

In the case of D39A, the abundance fitness is -0.063 ± 0.09.

D39Q: the abundance fitness is 0.005 ± 0.096.

Regarding D39H, the abundance fitness was -0.279 ± 0.12.

As to D39G, the abundance fitness amounted to 0.026 ± 0.18.

Take D39R: the abundance fitness was -0.456 ± 0.16.

In the case of D39Y, the abundance fitness is -0.324 ± 0.11.

In the case of C21F, the abundance fitness is -0.094 ± 0.15.

On to C21Y, for which the abundance fitness is -0.41 ± 0.097.

Consider C21H, for which the abundance fitness is -0.029 ± 0.081.

C21G: the abundance fitness was -0.062 ± 0.036.

As to C21M, the abundance fitness was -0.045 ± 0.039.

Take C21R: the abundance fitness is -0.087 ± 0.031.

Take C21T: the abundance fitness stood at 0.093 ± 0.04.

Regarding C21K, the abundance fitness is -0.034 ± 0.039.

Consider C21A, for which the abundance fitness is -0.04 ± 0.038.

Take I24P: the abundance fitness was -0.934 ± 0.12.

For I24C, the abundance fitness was -0.243 ± 0.042.

Consider I24D, for which the abundance fitness was -0.047 ± 0.12.

Regarding I24A, the abundance fitness is -0.117 ± 0.064.

Regarding S36D, the abundance fitness stood at 0.134 ± 0.051.

On to S36G, for which the abundance fitness was -0.34 ± 0.089.

Take S36A: the abundance fitness was 0.073 ± 0.035.

As to Q62M, the abundance fitness is -0.153 ± 0.061.

Take Q62P: the abundance fitness was -0.84 ± 0.041.

E6Q: the abundance fitness is -0.258 ± 0.12.

With E6H, the abundance fitness is -0.142 ± 0.34.

Consider E6Y, for which the abundance fitness is -0.158 ± 0.059.

Take E6F: the abundance fitness was -0.192 ± 0.053.

On to W47P, for which the abundance fitness was -0.964 ± 0.057.

Regarding W47E, the abundance fitness is -1.08 ± 0.14.
